Measured values published in publication PMC11475706, “ProEnd: a comprehensive database for identifying HbYX motif-containing proteins across the tree of life” (BMC Genomics, 2024).

Target: T1, PAN-2 (MJ1494), HbYX ATPase from Methanocaldococcus jannaschii (Methanocaldococcus jannaschii, UniProt Q58889 1-371)
T1 construct: PAN-2 (MJ1494), Methanocaldococcus jannaschii, UniProt Q58889; The hexameric state is only an AlphaFold Multimer prediction, not a measurement; also called putative 26S proteasome regulatory subunit; source: E. coli BL21 star DE3 (pET-28a(+), IPTG), held on Ni-NTA agarose from clarified lysate and washed; not shown: His6, N-terminal, kept
T1 sequence (looked up): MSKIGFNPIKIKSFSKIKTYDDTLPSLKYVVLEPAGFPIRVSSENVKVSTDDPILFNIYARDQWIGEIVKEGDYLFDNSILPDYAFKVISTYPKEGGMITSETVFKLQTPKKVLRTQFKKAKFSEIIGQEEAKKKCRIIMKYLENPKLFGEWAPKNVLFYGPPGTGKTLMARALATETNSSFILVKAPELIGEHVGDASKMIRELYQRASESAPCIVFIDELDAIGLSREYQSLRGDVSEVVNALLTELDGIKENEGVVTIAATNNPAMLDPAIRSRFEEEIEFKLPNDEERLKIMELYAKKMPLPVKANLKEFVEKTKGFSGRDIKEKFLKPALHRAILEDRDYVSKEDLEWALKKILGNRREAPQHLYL
Experiment: pull-down; 6His-PAN-2 held on Ni-NTA agarose, washed with 50 mM Tris, 100 mM NaCl, 2 mM ATP, 10 mM MgCl2; tagless T20S incubated 20 min at room temperature; washed; eluted with 150 mM imidazole; T20S in the eluate quantified by suc-LLVY-amc hydrolysis; control: Ni-NTA columns with T20S alone
Conditions: both partners purified

B1: T20S proteasome (20S from Thermoplasma acidophilum) (complex)
chain 1: MQQGQMAYDRAITVFSPDGRLFQVEYAREAVKKGSTALGMKFANGVLLISDKKVRSRLIEQNSIEKIQLIDDYVAAVTSGLVADARVLVDFARISAQQEKVTYGSLVNIENLVKRVADQMQQYTQYGGVRPYGVSLIFAGIDQIGPRLFDCDPAGTINEYKATAIGSGKDAVVSFLEREYKENLPEKEAVTLGIKALKSSLEEGEELKAPEIASITVGNKYRIYDQEEVKKFL
chain 2: TTTVGITLKDAVIMATERRVTMENFIMHKNGKKLFQIDTYTGMTIAGLVGDAQVLVRYMKAELELYRLQRRVNMPIEAVATLLSNMLNQVKYMPYMVQLLVGGIDTAPHVFSIDAAGGSVEDIYASTGSGSPFVYGVLESQYSEKMTVDEGVDLVIRAISAAKQRDSASGGMIDVAVITRKDGYVQLPTDQIESRIRKLGLIL
notes: proteasome subunit alpha, Thermoplasma acidophilum; proteasome subunit beta, Thermoplasma acidophilum; The C-terminal 6His tag on the beta subunits is preceded by a TEV site, so residues of that site probably stay at the beta C-terminus after the cut (surmise); also called archaeal proteasome T20S; archaeal 20S proteasome; source: recombinant, expressed from pET-28a(+), purified (Ni-NTA, TEV cut, …)
fold T20S pulled down against control Ni-NTA columns: 7 fold
